Results: doi:10.1101/2020.09.22.308395

Target: UDP-GlcNAc 4-epimerase (Gne) from Campylobacter jejuni (Campylobacter jejuni)
Experiment: SEC-MALLS

UDP-GlcNAc 4-epimerase (Gne) from Campylobacter jejuni (enzyme)
stoichiometry N: 2
